3 substances from US20090246175A1 can be followed below.

The target in test [1] is C3 convertases (C4b2a and C3bBb). Kind of test: cell-based or functional assay.
The target of test [2] is classical and lectin pathway C3 convertase C4b2a (human) (UniProt P0C0L4). The test is described as follows: cell-based or functional assay.
Sequence of UniProt P0C0L4 (P0C0L4 20-1744 limits assumed, chain 1 of 2): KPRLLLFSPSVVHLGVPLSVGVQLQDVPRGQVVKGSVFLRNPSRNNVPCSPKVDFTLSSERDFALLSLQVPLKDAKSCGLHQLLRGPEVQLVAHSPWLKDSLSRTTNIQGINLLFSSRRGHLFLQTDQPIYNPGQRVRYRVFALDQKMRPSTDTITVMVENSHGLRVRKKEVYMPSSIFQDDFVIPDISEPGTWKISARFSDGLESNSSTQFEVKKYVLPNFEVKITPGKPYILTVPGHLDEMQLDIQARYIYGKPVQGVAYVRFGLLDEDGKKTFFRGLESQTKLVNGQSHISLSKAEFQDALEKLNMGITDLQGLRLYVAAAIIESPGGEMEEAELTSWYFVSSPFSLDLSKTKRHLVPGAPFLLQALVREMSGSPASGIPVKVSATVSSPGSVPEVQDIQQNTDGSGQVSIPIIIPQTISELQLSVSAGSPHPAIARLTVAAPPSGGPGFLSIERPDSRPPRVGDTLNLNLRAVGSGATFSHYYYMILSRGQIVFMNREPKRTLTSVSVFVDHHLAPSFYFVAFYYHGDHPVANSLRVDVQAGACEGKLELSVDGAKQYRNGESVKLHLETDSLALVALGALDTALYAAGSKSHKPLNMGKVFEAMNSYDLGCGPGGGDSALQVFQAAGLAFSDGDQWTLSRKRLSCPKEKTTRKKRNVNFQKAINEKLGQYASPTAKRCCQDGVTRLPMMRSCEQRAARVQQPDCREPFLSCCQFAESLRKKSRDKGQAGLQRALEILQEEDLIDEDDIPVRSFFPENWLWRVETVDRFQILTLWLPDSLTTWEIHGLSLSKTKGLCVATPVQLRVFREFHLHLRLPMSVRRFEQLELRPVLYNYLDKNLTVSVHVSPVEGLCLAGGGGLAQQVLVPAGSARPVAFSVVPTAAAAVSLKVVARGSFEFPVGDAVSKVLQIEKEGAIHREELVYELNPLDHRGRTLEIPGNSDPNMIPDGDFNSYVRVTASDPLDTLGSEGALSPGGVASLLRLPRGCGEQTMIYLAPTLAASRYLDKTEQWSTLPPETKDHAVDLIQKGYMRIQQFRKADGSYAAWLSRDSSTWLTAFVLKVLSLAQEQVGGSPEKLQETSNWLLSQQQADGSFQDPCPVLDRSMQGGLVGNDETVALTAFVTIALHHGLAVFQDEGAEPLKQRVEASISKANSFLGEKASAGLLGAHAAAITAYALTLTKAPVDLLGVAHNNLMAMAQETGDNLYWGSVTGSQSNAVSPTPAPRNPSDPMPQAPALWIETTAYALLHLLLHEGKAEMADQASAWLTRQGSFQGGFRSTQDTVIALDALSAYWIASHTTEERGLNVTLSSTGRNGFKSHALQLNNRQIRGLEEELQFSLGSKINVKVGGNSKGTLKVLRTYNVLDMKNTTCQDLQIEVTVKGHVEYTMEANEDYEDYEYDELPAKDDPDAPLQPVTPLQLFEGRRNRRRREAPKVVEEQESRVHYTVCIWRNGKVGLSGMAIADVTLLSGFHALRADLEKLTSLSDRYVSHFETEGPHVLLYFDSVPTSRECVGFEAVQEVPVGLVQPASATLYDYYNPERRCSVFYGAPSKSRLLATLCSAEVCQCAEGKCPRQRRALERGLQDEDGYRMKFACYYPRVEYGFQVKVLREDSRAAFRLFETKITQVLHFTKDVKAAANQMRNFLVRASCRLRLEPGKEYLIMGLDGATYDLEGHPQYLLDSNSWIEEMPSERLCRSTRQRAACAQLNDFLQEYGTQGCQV
Sequence of UniProt P0C0L4 (P06681 244-752 limits assumed, chain 2 of 2, further chain): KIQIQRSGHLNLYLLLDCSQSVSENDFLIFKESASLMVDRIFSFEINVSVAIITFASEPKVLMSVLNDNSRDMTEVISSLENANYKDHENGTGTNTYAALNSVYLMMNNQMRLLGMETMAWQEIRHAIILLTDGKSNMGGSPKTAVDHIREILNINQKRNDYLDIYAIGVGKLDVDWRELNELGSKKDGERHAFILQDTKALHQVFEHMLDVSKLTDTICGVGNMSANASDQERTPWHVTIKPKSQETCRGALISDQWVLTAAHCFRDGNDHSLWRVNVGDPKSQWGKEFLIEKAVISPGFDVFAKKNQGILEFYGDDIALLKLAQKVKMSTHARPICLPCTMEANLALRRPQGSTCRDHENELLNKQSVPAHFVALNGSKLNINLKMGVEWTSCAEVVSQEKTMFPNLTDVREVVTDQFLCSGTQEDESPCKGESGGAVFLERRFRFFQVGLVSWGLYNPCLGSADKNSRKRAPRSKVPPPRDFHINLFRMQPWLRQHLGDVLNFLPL

Turning to “recombinant Staphylococcal Complement Inhibitor (rSCIN)”, the IC50 of phagocytosis of S. aureus by human neutrophils in 10% human sera in test [1] came out at 0.3 µg/mL. Further, the C5b-9 and C3b deposition via the CP and LP (ELISA) (% inhibition at 10 µg/ml) in test [2] amounted to 50. For the substance recombinant SCIN-C (rSCIN-C), the IC50 of phagocytosis of S. aureus by human neutrophils in 10% human sera in test [1] worked out at 0.12 µg/mL. Same read-out and setting: then recombinant SCIN-B (rSCIN-B), with 0.8 µg/mL.
